Measured values published in PMC9306533 (Journal of Neurochemistry, 2022).

Columns and labels:
[1] = molecular target: GRK3 (G protein‐coupled receptor kinase 3) (UniProt P35626); assay: BRET, CB1R-YFP and GRK3-Rluc8; conditions: sites S425,S429
[2] = molecular target: β‐arrestin2 (UniProt P32121); assay: BRET, CB1R-YFP and β-arrestin2-Rluc; conditions: reference: wild type; sites S425,S429
[3] = molecular target: CB1R_6D‐YFP (human, UniProt P21554 1-472, serine/threonine residues of 460TMSVSTDTS468 to aspartic acid); assay: FRET or BRET
[4] = molecular target: CB1R_2A‐YFP (human, UniProt P21554 1-472, S425A | S429A); assay: FRET or BRET
[5] = molecular target: CB1R_2D‐YFP (human, UniProt P21554 1-472, S425 mutated into aspartate | S429D); assay: FRET or BRET
[6] = molecular target: CB1R‐YFP (wild type) (human, UniProt P21554 1-472); assay: FRET or BRET
[7] = molecular target: CB1R_6A‐YFP (human, UniProt P21554 1-472, serine/threonine residues of 460TMSVSTDTS468 to alanine); assay: FRET or BRET
[8] = reference: 460…468 mutant, S425/S429 intact

## Cannabinoid receptor 1 (CB1R) (from UniProt P21554) 425AMGDA429_460…468
[1]; [8]
  other: agonist-promoted mBRET at 5 min: weaker; reference 28.95 ± 2.18
  other: agonist-promoted mBRET at 30 min: stronger; reference 27.11 ± 3.71

## Cannabinoid receptor 1 (CB1R) (from UniProt P21554) CB1R_2A (S425A, S429A)
[1]; reference: wild type
  other: agonist-promoted mBRET at 5 min: stronger; reference 23.62 ± 3.54
[2]
  other: agonist-promoted mBRET at 5 min: weaker; reference 29.33 ± 1.93

## Cannabinoid receptor 1 (CB1R) (from UniProt P21554) CB1R_2D (S425D, S429D)
[1]; reference: wild type
  other: agonist-promoted mBRET at 5 min: same; reference 35.54 ± 2.26
[2]
  other: agonist-promoted mBRET at 5 min: weaker; reference 29.93 ± 1.51

B1: GRK3‐Rluc8 (enzyme, human, UniProt P35626 1-688, looked up)
chain: MADLEAVLADVSYLMAMEKSKATPAARASKRIVLPEPSIRSVMQKYLAERNEITFDKIFNQKIGFLLFKDFCLNEINEAVPQVKFYEEIKEYEKLDNEEDRLCRSRQIYDAYIMKELLSCSHPFSKQAVEHVQSHLSKKQVTSTLFQPYIEEICESLRGDIFQKFMESDKFTRFCQWKNVELNIHLTMNEFSVHRIIGRGGFGEVYGCRKADTGKMYAMKCLDKKRIKMKQGETLALNERIMLSLVSTGDCPFIVCMTYAFHTPDKLCFILDLMNGGDLHYHLSQHGVFSEKEMRFYATEIILGLEHMHNRFVVYRDLKPANILLDEHGHARISDLGLACDFSKKKPHASVGTHGYMAPEVLQKGTAYDSSADWFSLGCMLFKLLRGHSPFRQHKTKDKHEIDRMTLTVNVELPDTFSPELKSLLEGLLQRDVSKRLGCHGGGSQEVKEHSFFKGVDWQHVYLQKYPPPLIPPRGEVNAADAFDIGSFDEEDTKGIKLLDCDQELYKNFPLVISERWQQEVTETVYEAVNADTDKIEARKRAKNKQLGHEEDYALGKDCIMHGYMLKLGNPFLTQWQRRYFYLFPNRLEWRGEGESRQNLLTMEQILSVEETQIKDKKCILFRIKGGKQFVLQCESDPEFVQWKKELNETFKEAQRLLRRAPKFLNKPRSGTVELPKPSLCHRNSNGL
[3]
  agonist-promoted mBRET at 5 min: 27.5 mBRET
[4]
  agonist-promoted mBRET at 5 min: 63.6 mBRET
[5]
  agonist-promoted mBRET at 5 min: 31.7 mBRET
[6]
  agonist-promoted mBRET at 30 min: 8.82 mBRET
[7]
  agonist-promoted mBRET at 5 min: 9.88 mBRET
